How the values were obtained:
[1] = target: T1, Hela cell EGFR (Homo sapiens, UniProt P00533); assay: Immunocytochemistry assay of EGFR internalization in Hela cells; type: cell-based; conditions: Hela cells treated 6 hours; FIG. 5C
T1 construct: soybean produced hEGF induces a rapid phosphorylation of Hela cell EGFR; endogenous in cells; host or cells: HeLa cells (American Tissue Culture Collection)
Procedure: (§1) Hela cells (obtained from American Tissue Culture Collection) were cultured in Minimum Essential Media (MEM) complemented with 10% Fetal Bovine Serum (FBS), 100 units/ml penicillin, and 100 μg/ml streptomycin. For western blotting assay, cells grown in 6-well plate were kept in serum free MEM media for 24 hours. Cells were then either kept in serum free medium (control) or stimulated with soymilk alone, soy EGF or commercial recombined hEGF for different time period as indicated. Cells were lysed by directly adding 1×SDS sample buffer (50 mM Tris-HCl, pH 6.8, 10% glycerol, 2% SDS and 5% 13-ME) to the cells after washing 3 times with 1×PBS. EGF bio-activity was determined via EGFR phosphorylation and down-stream AKT phosphorylation. Total EGFR was also measured since EGFR is known to undergo internalization when stimulated with EGF. Antibodies used in western blot are anti-p-EGFR (Tyr1068) (#2234, Cell Signaling Technology), anti-total EGFR (#06-847, Millipore), anti-p-AKT (#4060, Cell Signaling Technology) and anti-Lamin B1 (#13435, Cell Signaling Technology). […] EGFR was labeled using anti-EGFR antibody (#4267, Cell Signaling Technology) and detected with Alexa Fluor 594 Goat anti-rabbit IgG (#A11012, life technology). […]

[2] = target: T1, Hela cell EGFR; assay: EGF bioactivity in Hela cells by western blotting (pEGFR, total EGFR); type: cell-based; conditions: for overall EGF bioactivity: internalization, degradation and phosphorylation of EGFR: HeLa cells, compared with commercial rhEGF
Procedure: Hela cells (obtained from American Tissue Culture Collection) were cultured in Minimum Essential Media (MEM) complemented with 10% Fetal Bovine Serum (FBS), 100 units/ml penicillin, and 100 μg/ml streptomycin. For western blotting assay, cells grown in 6-well plate were kept in serum free MEM media for 24 hours. […] Cells were lysed by directly adding 1×SDS sample buffer (50 mM Tris-HCl, pH 6.8, 10% glycerol, 2% SDS and 5% 13-ME) to the cells after washing 3 times with 1×PBS. EGF bio-activity was determined via EGFR phosphorylation and down-stream AKT phosphorylation. Total EGFR was also measured since EGFR is known to undergo internalization when stimulated with EGF. Antibodies used in western blot are anti-p-EGFR (Tyr1068) (#2234, Cell Signaling Technology), anti-total EGFR (#06-847, Millipore), anti-p-AKT (#4060, Cell Signaling Technology) and anti-Lamin B1 (#13435, Cell Signaling Technology). For immunocytochemistry assay, cells were grown on coverslip in 6-well plate and kept in serum free media for 24 hours before stimulation, cells were then either kept in serum free media (control) or stimulated with human or soy EGF for 6 hours. Cells were washed with PBS and fixed with 4% formalin. EGFR was labeled using anti-EGFR antibody (#4267, Cell Signaling Technology) and detected with Alexa Fluor 594 Goat anti-rabbit IgG (#A11012, life technology). The cell nuclei were shown using mounting medium with DAPI (#H-1200, Vectorshield).

[3] = Stability of rhEGF in soymilk, read out by EGFR bioactivity in Hela cells; type: physicochemical; conditions: in soymilk over 24 hours; bioactivity compared with control rhEGF; FIG. 5B
Procedure: as §1

Substance	internalization of the EGFR (immunohistochemical assay) [1]	overall EGF bioactivity: internalization, degradation and phosphorylation of EGFR ([2]; listed as EGF protein produced in soybean seed)	overall EGF bioactivity: internalization, degradation and phosphorylation of EGFR ([2]; listed as soybean-produced hEGF)	internalization and degradation of EGFR (decrease in abundance by immunoblot) ([2]; Hela cells, 0.1 μg/ml, FIG. 5B)	EGFR phosphorylation (pEGFR) ([2]; Hela cells, soymilk from ShEGF soybeans at 0.1, 0.05, 0.025 μg/ml, FIG. 5A)	EGFR degradation ([2]; Hela cells, soymilk from seeds producing ShEGF at 0.1, 0.05, 0.025 μg/ml, FIG. 5A)	degradation of EGF in soymilk [3]
ShEGF: human EGF produced in transgenic soybean seeds from a synthetic soybean codon optimized hEGF gene with N-terminal ER signal (SEQ ID NO: 1) (SLSSAENSDSECPLSHDGYCLHDGVCMYIEALDKYACNCVVGYIGERCQYRDLKWWELR; Modified EGF DNA sequence)	induces internalization of the EGFR comparable to that from control rhEGF	bioactive and comparable to commercially available hEGF	indistinguishable from the bioactivity of commercial rhEGF	induces an internalization and degradation of EGFR	induced pEGFR comparable to control rhEGF	induced concentration-dependent EGFR degradation comparable to the effect of rhEGF	–
rhEGF: commercial recombinant human EGF	–	–	–	–	–	–	not degraded in soymilk over 24 hours

Reference: patent US10889826B2, “Methods and compositions for producing epidermal growth factor (EGF) in soybeans” (ARIZONA BOARD OF REGENTS ON BEHALF OF THE UNIVERSITY OF …, priority 2017, dated 2021)
